According to paper PMC4949242, “Conjugative DNA Transfer Is Enhanced by Plasmid R1 Partitioning Proteins”:

Tests used:
[1] = molecular target: TraI, relaxase/helicase of plasmid R1 (plasmid R1 (R1-16), in E. coli)
ParR [2] = molecular target: T1, ParR (Escherichia coli plasmid R1, UniProt P11906 1-117); assay: EMSA; ParR 20-320 nM; EMSA: 10 mM Tris-HCl pH 7.5, 50 mM NaCl, 0.005% NP-40, 1 mM DTT, 1 mM EDTA, 25 C, 20 min (DNA 20 nM in Methods, 4 nM in Fig 5 legend); fluorescence: 20 mM Tris-HCl pH 7.5, 100 mM NaCl, 1 mM EDTA, 25 C, 4 nM oriT17*, 0-100 nM TraI; settings: protein: recombinant; tags: none stated; chain copies: 2; label: 3'-TAMRA
T1 sequence: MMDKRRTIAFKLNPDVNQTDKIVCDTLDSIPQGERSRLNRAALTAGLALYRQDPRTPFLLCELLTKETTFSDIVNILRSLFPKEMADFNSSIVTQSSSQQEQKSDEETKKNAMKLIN

ParR [3] = molecular target: T1, ParR; assay: EMSA; shift from 5:1 protein/DNA molar ratio; EMSA: 10 mM Tris-HCl pH 7.5, 50 mM NaCl, 0.005% NP-40, 1 mM DTT, 1 mM EDTA, 25 C, 20 min (DNA 20 nM in Methods, 4 nM in Fig 5 legend); fluorescence: 20 mM Tris-HCl pH 7.5, 100 mM NaCl, 1 mM EDTA, 25 C, 4 nM oriT17*, 0-100 nM TraI; settings: protein: recombinant; tags: none stated; chain copies: 2; label: 3'-TAMRA on strand 1; blunt
[4] = molecular target: TraD, type IV coupling protein (T4CP) of plasmid R1 (plasmid R1 (R1-16), in E. coli)
[5] = molecular target: T2, TraIN308 (relaxase domain) (Escherichia coli plasmid R1, UniProt Q6TDU5 1-308); assay: fluorescence intensity titration; unit not printed with value; nM from titration range; EMSA: 10 mM Tris-HCl pH 7.5, 50 mM NaCl, 0.005% NP-40, 1 mM DTT, 1 mM EDTA, 25 C, 20 min (DNA 20 nM in Methods, 4 nM in Fig 5 legend); fluorescence: 20 mM Tris-HCl pH 7.5, 100 mM NaCl, 1 mM EDTA, 25 C, 4 nM oriT17*, 0-100 nM TraI; settings: protein: recombinant; label: 3'-TAMRA
T2 sequence: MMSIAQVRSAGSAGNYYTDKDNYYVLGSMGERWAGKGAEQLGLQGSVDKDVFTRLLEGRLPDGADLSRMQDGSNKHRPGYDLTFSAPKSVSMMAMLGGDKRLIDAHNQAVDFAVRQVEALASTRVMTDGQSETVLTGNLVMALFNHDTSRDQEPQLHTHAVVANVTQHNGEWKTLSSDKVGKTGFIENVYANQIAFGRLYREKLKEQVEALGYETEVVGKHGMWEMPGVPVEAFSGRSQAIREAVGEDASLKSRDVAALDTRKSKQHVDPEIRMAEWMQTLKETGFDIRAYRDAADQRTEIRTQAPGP

TraI = TraI (Escherichia coli plasmid R1, UniProt Q6TDU5 1-1756); assay: as above; settings: protein: recombinant; label: 3'-TAMRA
[6] = molecular target: T3, TraIΔN308 (helicase domain) (Escherichia coli plasmid R1, UniProt Q6TDU5 309-1756, del1-308); assay: as above; settings: protein: recombinant; label: 3'-TAMRA
T3 sequence: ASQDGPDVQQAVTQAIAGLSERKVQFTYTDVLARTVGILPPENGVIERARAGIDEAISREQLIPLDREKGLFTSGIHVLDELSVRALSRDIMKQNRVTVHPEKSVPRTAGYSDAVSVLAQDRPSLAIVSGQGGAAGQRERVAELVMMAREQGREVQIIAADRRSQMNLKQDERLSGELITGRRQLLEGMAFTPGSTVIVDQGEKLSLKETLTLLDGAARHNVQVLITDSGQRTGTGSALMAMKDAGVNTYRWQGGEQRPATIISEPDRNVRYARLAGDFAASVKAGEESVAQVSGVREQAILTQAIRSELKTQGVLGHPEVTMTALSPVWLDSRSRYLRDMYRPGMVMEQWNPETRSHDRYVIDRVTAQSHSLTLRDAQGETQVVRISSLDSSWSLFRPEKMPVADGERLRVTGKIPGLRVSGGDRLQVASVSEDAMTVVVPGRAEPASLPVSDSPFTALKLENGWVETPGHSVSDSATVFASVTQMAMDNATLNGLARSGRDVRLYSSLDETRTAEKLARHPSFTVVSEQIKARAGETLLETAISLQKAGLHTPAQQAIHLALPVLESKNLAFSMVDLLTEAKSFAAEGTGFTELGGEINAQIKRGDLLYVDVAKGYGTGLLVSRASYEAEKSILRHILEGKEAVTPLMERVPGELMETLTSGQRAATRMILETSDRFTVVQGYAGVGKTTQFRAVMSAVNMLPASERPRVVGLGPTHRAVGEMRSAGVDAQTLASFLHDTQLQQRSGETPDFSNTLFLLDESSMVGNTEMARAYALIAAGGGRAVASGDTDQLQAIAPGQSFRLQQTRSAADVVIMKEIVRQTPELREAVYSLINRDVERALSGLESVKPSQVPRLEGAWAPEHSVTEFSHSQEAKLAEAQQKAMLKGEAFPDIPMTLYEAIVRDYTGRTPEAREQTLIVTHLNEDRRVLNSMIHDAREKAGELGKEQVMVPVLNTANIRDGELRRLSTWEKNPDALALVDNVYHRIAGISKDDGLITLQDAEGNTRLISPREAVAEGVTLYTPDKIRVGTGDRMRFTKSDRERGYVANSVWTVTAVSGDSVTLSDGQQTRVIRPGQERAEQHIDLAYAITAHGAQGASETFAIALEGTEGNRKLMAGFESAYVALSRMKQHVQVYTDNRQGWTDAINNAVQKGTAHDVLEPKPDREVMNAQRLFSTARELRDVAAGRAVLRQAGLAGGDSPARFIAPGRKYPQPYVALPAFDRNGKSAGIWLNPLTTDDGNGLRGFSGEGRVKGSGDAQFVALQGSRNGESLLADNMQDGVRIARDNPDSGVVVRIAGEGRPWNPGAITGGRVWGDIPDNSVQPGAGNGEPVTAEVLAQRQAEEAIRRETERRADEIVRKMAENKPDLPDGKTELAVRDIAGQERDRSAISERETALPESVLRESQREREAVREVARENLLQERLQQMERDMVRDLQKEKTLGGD

Molecule “ParR with C-terminal FLAG epitope (pMS-CFLAGparR) (natural protein)” has a TraI (25 nM) relaxase activity on supercoiled oriT plasmid pDE100 (4 nM), percent open circular DNA, with increasing purified untagged ParR; maximum at 10 nM ParR [1] of 4 fold.

B1: ssrnd (ssDNA)
DNA: CGAACGAGCAGTTGTTTCAGCG
B1: no binding (ParR [2]).

B2: ParM with C-terminal FLAG epitope (pMS-CFLAGparM) (natural protein)
chain: MLVFIDDGSTNIKLQWQESDGTIKQHISPNSFKREWAVSFGDKKVFNYTLNGEQYSFDPISPDAVVTTNIAWQYSDVNVVAVHHALLTSGLPVSEVDIVCTLPLTEYYDRNNQPNTENIERKKANFRKKITLNGGDTFTIKDVKVMPESIPAGYEVLQELDELDSLLIIDLGGTTLDISQVMGKLSGISKIYGDSSLGVSLVTSAVKDALSLARTKGSSYLADDIIIHRKDNNYLKQRINDENKISIVTEAMNEALRKLEQRVLNTLNEFSGYTHVMVIGGGAELICDAVKKHTQIRDERFFKTNNSQYDLVNGMYLIGN
In the case of B2, the TraI (25 nM) relaxase activity on supercoiled oriT plasmid pDE100 (4 nM), percent open circular DNA, with increasing purified untagged ParM; maximum at 20-30 nM ParM [1] is reported as 3 fold.

B3: ssparC (ssDNA)
DNA: AAACAAAACCCAAAAACAACCC
B3: no binding (ParR [2]).

B4: ssoriT (ssDNA)
DNA: ACCAAAAGCACCACACCCCACGCAAAAACAAG
B4: no binding (ParR [2]).

B5: dsparC (iterons 1 and 2) (dsDNA)
DNA 1: AAACAAAACCCAAAAACAACCC
DNA 2: GGGTTGTTTTTGGGTTTTGTTT
B5: binds (ParR [3]).

B6: CreParMK123A (Cre fused to ParM residues 2-320 with K123A) (protein)
chain: LVFIDDGSTNIKLQWQESDGTIKQHISPNSFKREWAVSFGDKKVFNYTLNGEQYSFDPISPDAVVTTNIAWQYSDVNVVAVHHALLTSGLPVSEVDIVCTLPLTEYYDRNNQPNTENIERKAANFRKKITLNGGDTFTIKDVKVMPESIPAGYEVLQELDELDSLLIIDLGGTTLDISQVMGKLSGISKIYGDSSLGVSLVTSAVKDALSLARTKGSSYLADDIIIHRKDNNYLKQRINDENKISIVTEAMNEALRKLEQRVLNTLNEFSGYTHVMVIGGGAELICDAVKKHTQIRDERFFKTNNSQYDLVNGMYLIGN
With B6 the translocation of CreParMK123A to recipient cells by the R1-16 T4SS (CRAfT), percent of wild type Cre-ParM (% of wild type levels) [4] was 24.5.

B7: CreParMS39A (Cre fused to ParM residues 2-320 with S39A) (protein)
chain: LVFIDDGSTNIKLQWQESDGTIKQHISPNSFKREWAVAFGDKKVFNYTLNGEQYSFDPISPDAVVTTNIAWQYSDVNVVAVHHALLTSGLPVSEVDIVCTLPLTEYYDRNNQPNTENIERKKANFRKKITLNGGDTFTIKDVKVMPESIPAGYEVLQELDELDSLLIIDLGGTTLDISQVMGKLSGISKIYGDSSLGVSLVTSAVKDALSLARTKGSSYLADDIIIHRKDNNYLKQRINDENKISIVTEAMNEALRKLEQRVLNTLNEFSGYTHVMVIGGGAELICDAVKKHTQIRDERFFKTNNSQYDLVNGMYLIGN
B7 was tested, and the translocation of CreParMS39A to recipient cells by the R1-16 T4SS (CRAfT), percent of wild type Cre-ParM (% of wild type levels) [4] was 59.

B8: oriT17* (ssDNA)
DNA: TTTGCGTGGGGTGTGGT
B8 was tested, and the Kd [5] was 0.87 ± 0.19 nM, the Kd (TraI) was 4.05 ± 0.32 nM and the Kd [6] was 82.6 ± 13.1 nM.
